Tests used:
[1] = tested on: patients with Type 2 diabetes mellitus (T2DM); test: Body weight change from baseline to Week 30 (Example 2); type: in vivo, human
Source text: Body weight should be obtained with the patient wearing undergarments or very light clothing and no shoes, and with an empty bladder. The same scale should be used throughout the study, and calibrated on a regular basis as recommended by the manufacturer.
(§1) Similar MMRM method or ANCOVA was applied on continuous secondary efficacy endpoints and Cochran-Mantei-Haenszel method stratified by randomization strata was applied on categorical efficacy endpoints.

[2] = tested on: patients with Type 2 diabetes mellitus (T2DM); test: Fasting plasma glucose change from baseline to Week 30 (Example 2); type: in vivo, human
Protocol: FPG is measured at a central laboratory. At V5 and V21, FPG will be part of the standardized meal test.
as §1

[3] = tested on: patients with Type 2 diabetes mellitus (T2DM); test: Average 7-point SMPG change from baseline to Week 30 (Example 2); type: in vivo, human; conditions: mITT population
Source text: Self-monitored plasma glucose (SMPG)”, as used herein, is in particular the “7-point Self Monitored Plasma Glucose”. “7-point Self Monitored Plasma Glucose” in particular refers to the measurement of plasma glucose seven times a day and calculation of the average plasma glucose concentration therefrom. The “7-point Self Monitored Plasma Glucose” value is in particular an average plasma glucose concentration including fasting and postprandial conditions. In particular, measurements of plasma glucose concentration are performed pre-breakfast, post-breakfast (e.g. 2-hour post-breakfast), pre-lunch, post-lunch (e.g. 2-hour post-lunch), pre-dinner, post-dinner (e.g. 2-hour post-dinner) and at bed-time.
The 7-point SMPG profile should be measured at the following 7 points: pre-prandial and 2 hours postprandial for breakfast, lunch, dinner and at bedtime. Two hours postprandial (breakfast, lunch and dinner) is defined as 2 hours after the start of the meal.
The patients are requested to perform 7-point SMPG profile measurement over a single 24-hour period on 2 Different Days in the Week Before V6 (Week 0), V15 (Week 12), and V21 (week 30, end of treatment assessment visit). All SMPG values measured on these days will be recorded in diary and transferred into the e-CRF.

[4] = tested on: patients with Type 2 diabetes mellitus (T2DM); test: Events adjudicated as allergic reaction by ARAC (Example 2); type: in vivo, human
Source text: The mission of the ARAC will be to adjudicate, in a timely manner, all allergic, or possible allergic events.
In case a patient experiences an allergic reaction or an allergic-like reaction this has to be reported as an adverse event and recorded in the e-CRF on the specific AE form for suspected allergic event. Additional information is collected on specific allergic reaction complementary form. Allergic reaction or possible allergic reaction will be adjudicated by the ARAC (Section 5.4.2).
The number (%) of patients with events adjudicated as allergic reactions by ARAC and with events adjudicated by ARAC as possibly related to the IMP will be summarized by treatment group. All the allergic events reported by the investigators on the AE form for suspected allergic event and its associated complementary forms (confirmed or not confirmed by ARAC) will be listed.

patients with T2DM = tested on: patients with T2DM; design: species or system human; conditions: in vivo
Source text: (§2) In case the investigator or the patient recognizes any signs of local intolerability at injection site this should be recorded on the standard AE page in the e-CRF. AEs related to local intolerability at the injection site will be identified by searching the term “injection site” in either the PTs coded from the investigator reported terms or the PTs coded from the ARAC diagnosis terms. The number (%) of patients with related events will be summarized by treatment group.

[5] = tested on: patients with Type 2 diabetes mellitus (T2DM); design: species or system human; conditions: in vivo
Source text: as §2

[6] = tested on: patients with Type 2 diabetes mellitus (T2DM); test: Symptomatic hypoglycemia (Example 2)
[7] = on-treatment period, Safety population

Gly(A21)-Arg(B31)-Arg(B32)-human insulin [Insulin Glargine]
LS mean body weight change from baseline to Week 30 ([1]; Example 2): +1.10 kg
Body weight, change from baseline to Week 30, LS Mean (SE) ([1]; MMRM, mITT population): −1.11 (0.183) kg
Body weight, Week 30, Mean (SD) ([1]; mITT population): 90.68 (16.03) kg
Body weight, Week 30, Median ([1]; mITT population): 89.00 kg
FPG, LS mean change from baseline to Week 30 ([2]; Example 2): -3.27 mmol/L
Fasting plasma glucose, change from baseline to Week 30, LS Mean (SE) ([2]; MMRM, mITT population): −3.27 (0.091) mmol/L
Fasting plasma glucose, Week 30, Mean (SD) ([2]; mITT population): 6.53 (1.76) mmol/L
Fasting plasma glucose, Week 30, Median ([2]; mITT population): 6.20 mmol/L
Average of 7-point SMPG, change from baseline to Week 30, LS Mean (SE) ([3]; MMRM): −2.66 (0.084) mmol/L
Average of 7-point SMPG, Week 30, Mean (SD) [3]: 7.75 (1.49) mmol/L
Average of 7-point SMPG, Week 30, Median [3]: 7.49 mmol/L
Allergic reaction by ARAC: All; Anaphylactic reaction ([4]; in vivo): 0 Number (%)
Allergic reaction by ARAC: All; Angioedema ([4]; in vivo): 0 Number (%)
Allergic reaction by ARAC: All; Other allergic reaction; Conjunctivitis allergic ([4]; in vivo): 1 (0.2%) Number (%)
Allergic reaction by ARAC: All; Other allergic reaction; Rhinitis allergic ([4]; in vivo): 2 (0.4%) Number (%)
Allergic reaction by ARAC: Not related to IMP; Angioedema ([4]; in vivo): 0 Number (%)
Allergic reaction by ARAC: Not related to IMP; Any category; Any event ([4]; in vivo): 3 (0.6%) Number (%)
Allergic reaction by ARAC: Not related to IMP; Other allergic reaction; Conjunctivitis allergic ([4]; in vivo): 1 (0.2%) Number (%)
Allergic reaction by ARAC: Not related to IMP; Other allergic reaction; Rhinitis allergic ([4]; in vivo): 2 (0.4%) Number (%)
Allergic reaction by ARAC: Possibly related to IMP; Anaphylactic reaction ([4]; in vivo): 0 Number (%)
Allergic reaction by ARAC: Possibly related to IMP; Any category; Any event ([4]; in vivo): 0 Number (%)
Allergic reactions possibly related to IMP (ARAC), number of patients ([4]; in vivo): none
Patients with events adjudicated as allergic reaction by ARAC: All; Any category; Any event ([4]; in vivo): 3 (0.6%) Number (%)
Allergic reaction by ARAC: All; Urticaria (hives); Urticaria [4, 7]: 1 (0.2%) Number (%)
Allergic reaction by ARAC: Not related to IMP; Urticaria (hives); Urticaria [4, 7]: 1 (0.2%) Number (%)
Allergic reaction by ARAC: Possibly related to IMP; Urticaria (hives); Urticaria [4, 7]: 0 Number (%)
% of patients experiencing injection site reactions: Any injection site reactions (patients with T2DM): 0.5%
% of patients experiencing injection site reactions: Injection site hypertrophy (patients with T2DM): 0.3%
% of patients experiencing injection site reactions: Injection site reaction (patients with T2DM): 0.3%
% of patients experiencing injection site reactions: PTs coded from the investigator reported terms (patients with T2DM): 0.5%
Number of patients experiencing injection site reactions: Any injection site reactions (patients with T2DM): 2
Number of patients experiencing injection site reactions: Injection site hypertrophy (patients with T2DM): 1
Number of patients experiencing injection site reactions: Injection site reaction (patients with T2DM): 1
Number of patients experiencing injection site reactions: PTs coded from the investigator reported terms (patients with T2DM): 2
Patients who experienced injection site reactions (patients with T2DM): 2 patients
Any injection site reactions [5]: 8 (1.7%) Number (%)
Injection site bruising [5]: 4 (0.9%) Number (%)
Injection site discomfort [5]: 0 Number (%)
Injection site erythema [5]: 0 Number (%)
Injection site haemorrhage [5]: 2 (0.4%) Number (%)
Injection site irritation [5]: 0 Number (%)
Injection site nodule [5]: 0 Number (%)
Injection site pain [5]: 2 (0.4%) Number (%)
Injection site papule [5]: 0 Number (%)
Injection site rash [5]: 0 Number (%)
Injection site reactions, % of patients [5]: 1.7%
Injection site reactions: PTs coded from the ARAC diagnosis terms [5]: 0 Number (%)
Injection site reactions: PTs coded from the investigator reported terms [5]: 8 (1.7%) Number (%)
Injection site swelling [5]: 1 (0.2%) Number (%)
Injection site warmth [5]: 1 (0.2%) Number (%)
Documented (≤70 mg/dL) symptomatic hypoglycemia event rate per patient-year ([6]; Example 2): 1.22 per patient-year
Events of severe symptomatic hypoglycemia ([6]; Example 2): 1 event
Incidence of documented (≤70 mg/dL) symptomatic hypoglycemia ([6]; Example 2): 23.6%
Number of symptomatic hypoglycemia events ([6]; Example 2): 338 events
Patients reporting symptomatic hypoglycemia (protocol definition) ([6]; Example 2): 25.5%
Symptomatic hypoglycemia events per patient-year ([6]; Example 2): 1.29 events per patient-year
Documented symptomatic hypoglycemia (plasma glucose < 60 mg/dL [[…]]): Number of events [6, 7]: 75
Documented symptomatic hypoglycemia (plasma glucose < 60 mg/dL [[…]]): Number of events per patient year [6, 7]: 0.29 per patient year
Documented symptomatic hypoglycemia (plasma glucose < 60 mg/dL [[…]]): Number of patients with events [6, 7]: 50 (10.7%) n (%)
Documented symptomatic hypoglycemia (plasma glucose < 60 mg/dL [[…]]): Number of patients with events per patient year [6, 7]: 0.19 per patient year
Documented symptomatic hypoglycemia (plasma glucose ≤ 70 mg/dL [[…]]): Number of events [6, 7]: 321
Documented symptomatic hypoglycemia (plasma glucose ≤ 70 mg/dL [[…]]): Number of events per patient year [6, 7]: 1.22 per patient year
Documented symptomatic hypoglycemia (plasma glucose ≤ 70 mg/dL [[…]]): Number of patients with events [6, 7]: 110 (23.6%) n (%)
Documented symptomatic hypoglycemia (plasma glucose ≤ 70 mg/dL [[…]]): Number of patients with events per patient year [6, 7]: 0.42 per patient year
Probable symptomatic hypoglycemia: Number of events [6, 7]: 16
Probable symptomatic hypoglycemia: Number of events per patient year [6, 7]: 0.06 per patient year
Probable symptomatic hypoglycemia: Number of patients with events [6, 7]: 12 (2.6%) n (%)
Probable symptomatic hypoglycemia: Number of patients with events per patient year [6, 7]: 0.05 per patient year
Severe symptomatic hypoglycemia: Number of events [6, 7]: 1
Severe symptomatic hypoglycemia: Number of events per patient year [6, 7]: <0.01 per patient year
Severe symptomatic hypoglycemia: Number of patients with events [6, 7]: 1 (0.2%) n (%)
Severe symptomatic hypoglycemia: Number of patients with events per patient year [6, 7]: <0.01 per patient year
Symptomatic hypoglycemia: Number of events [6, 7]: 338
Symptomatic hypoglycemia: Number of events per patient year [6, 7]: 1.29 per patient year
Symptomatic hypoglycemia: Number of patients with events [6, 7]: 119 (25.5%) n (%)
Symptomatic hypoglycemia: Number of patients with events per patient year [6, 7]: 0.45 per patient year

Source: US12186374B2 (Sanofi-Aventis Deutschland GmbH, priority 2014, dated 2025)
